Km, kcat and kcat/Km data for one protein are collected here from PMC3102601.

As usually defined, the Km is the substrate concentration at which the rate is half of its maximum. One may read the kcat as the maximal rate divided by the concentration of active sites. What is called kcat/Km is the turnover number divided by the Michaelis constant.

What all share (assay): purified protein
Substrate in data set [1]: Nc1ncnc2c1ncn2[C@@H]1O[C@H](COP(=O)(O)OP(=O)(O)OP(=O)(O)O)[C@@H](O)[C@H]1O
Format: biochemical, Pseudomonas fluorescens. The conditions noted are these: Zn2+ active site; phosphoryl transfer to Thr64; 25.0 °C.

Substrate in data set [2]: O=CCP(=O)(O)O
The conditions noted are these: Zn2+; 25.0 °C.

Substrate in data set [3]: O=[N+]([O-])c1ccc(OP(=O)(O)O)cc1
As to conditions: Zn2+; 25.0 °C.

B1: phosphonoacetate hydrolase (PAc hydrolase) (Pseudomonas fluorescens) (protein)
chain: TQLISVNSRSYRLSSAPTIVICVDGCEQEYINQAIQAGQAPFLAELTGFGTVLTGDCVVPSFTNPNNLSIVTGAPPSVHGICGNFFFDQETQEEVLMNDAKYLRAPTILAEMAKAGQLVAVVTAKDKLRNLLGHQLKGICFSAEKADQVNLEEHGVENILARVGMPVPSVYSADLSEFVFAAGLSLLTNERPDFMYLSTTDYVQHKHAPGTPEANAFYAMMDSYFKRYHEQGAIVAITADHGMNAKTDAIGRPNILFLQDLLDAQYGAQRTRVLLPITDPYVVHHGALGSYATVYLRDAVPQRDAIDFLAGIAGVEAVLTRSQACQRFELPEDRIGDLVVLGERLTVLGSAADKHDLSGLTVPLRSHGGVSEQKVPLIFNRKLVGLDSPGRLRNFDIIDLALNHLA
As for B1, in “purified protein [1]”, the Km stood at 1000 µM, the kcat was 0.0002 s⁻¹ and the kcat/Km was found to be 0.2 M⁻¹ s⁻¹. In addition, in the data set “purified protein [2]”, the Km came out at 330 ± 10 µM, the kcat is 0.027 ± 0.01 s⁻¹ and the kcat/Km turned out to be 80 M⁻¹ s⁻¹. In “purified protein [3]”, the Km is 14000 ± 200 µM, the kcat came out at 0.22 s⁻¹ and the kcat/Km is 20 M⁻¹ s⁻¹.
